For one substance, PDGF-BB-stimulated fibroblast migration on osteopontin (monolayer wound closure, 24 h): inhibition by integrin αV blocking antibody in the panel of integrin blocking antibodies (Fig. 3B) and PDGF-BB-stimulated fibroblast migration on osteopontin (monolayer wound closure, 24 h): reduction by integrin αV blocking antibody compared to control IgG (Fig. 3A) results are on record in paper PMC5387740.

This experiment has as its target osteopontin (UniProt P10451).
Sequence of UniProt P10451 (P10451 17-314): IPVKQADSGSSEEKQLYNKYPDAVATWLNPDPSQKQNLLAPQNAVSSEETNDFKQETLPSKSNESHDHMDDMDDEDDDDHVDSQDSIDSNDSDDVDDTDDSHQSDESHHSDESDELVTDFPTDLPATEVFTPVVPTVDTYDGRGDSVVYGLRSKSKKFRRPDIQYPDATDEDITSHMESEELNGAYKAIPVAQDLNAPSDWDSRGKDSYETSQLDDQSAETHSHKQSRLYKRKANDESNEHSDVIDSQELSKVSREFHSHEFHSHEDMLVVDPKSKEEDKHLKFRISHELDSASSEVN

Regarding integrin alpha v (αV) (receptor), the PDGF-BB-stimulated fibroblast migration on osteopontin (monolayer wound closure, 24 h): inhibition by integrin αV blocking antibody in the panel of integrin blocking antibodies (Fig. 3B) stood at 92% and the PDGF-BB-stimulated fibroblast migration on osteopontin (monolayer wound closure, 24 h): reduction by integrin αV blocking antibody compared to control IgG (Fig. 3A) came to 91%.
